The text below walks through data of PMC5655542.

This experiment deals with H. polygyrus Alarmin Release Inhibitor (HpARI), recombinant mature 6-His and Myc-tagged protein (Heligmosomoides polygyrus). The experiment in a line: SPR; BIAcore T200; HpARI captured via its 6-His tag on a Ni2+-NTA chip to 400 RU; cytokine injected (mIL-33 6.2-167 nM, hIL-33 0.062-1.67 μM); 25°C; 10 mM NaH2PO4 pH 7.5, 150 mM NaCl, 50 μM EDTA, 0.05% surfactant P20; single kinetic titration, global 1:1 fit. On the technique in general: Surface plasmon resonance follows binding to a sensor surface in real time, without labels.
Chain of H. polygyrus Alarmin Release Inhibitor (HpARI), recombinant mature 6-His and Myc-tagged protein (Heligmosomoides polygyrus) (A0A3P7XL18 63-297): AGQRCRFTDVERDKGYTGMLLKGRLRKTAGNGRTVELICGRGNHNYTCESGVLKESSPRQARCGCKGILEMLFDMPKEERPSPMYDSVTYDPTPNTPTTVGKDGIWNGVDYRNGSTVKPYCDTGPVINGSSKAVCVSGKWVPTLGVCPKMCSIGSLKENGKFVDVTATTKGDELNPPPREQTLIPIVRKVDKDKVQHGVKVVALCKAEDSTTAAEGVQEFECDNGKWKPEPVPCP

What is called Kd is the concentration at which binding is half-saturated. As usually defined, the stoichiometry N is a count of units in the complex or per binding partner.

B1: recombinant human IL-33, untreated (reduced, active form) (ligand)
chain: MKPKMKYSTNKISTAKWKNTASKALCFKLGKSQQKAKEVCPMYFMKLRSGLMIKKEACYFRRETTKRPSLKTGRKHKRHLVLAACQQQSTVECFAFGISGVQKYTRALHDSSITGISPITEYLASLSTYNDQSITFALEDESYEIYVEDLKKDEKKDKVLLSYYESQHPSNESGDGVDGKMLMVTLSPTKDFWLHANNKEHSVELHKCEKPLPDQAFFVLHNMHSNCVSFECKTDPGVFIGVKDNHLALIKVDSSENLCTENILFKLSET
On to B1, for which the Kd came out at 260 nM and the stoichiometry N worked out at 1.
